The values that follow come from US20100159468A1.

In this assay the target is Arf1-V5 (human) (UniProt P84077). Nature of the assay: cell-based or functional assay.
Sequence of Arf1-V5 (human) (P84077 2-181): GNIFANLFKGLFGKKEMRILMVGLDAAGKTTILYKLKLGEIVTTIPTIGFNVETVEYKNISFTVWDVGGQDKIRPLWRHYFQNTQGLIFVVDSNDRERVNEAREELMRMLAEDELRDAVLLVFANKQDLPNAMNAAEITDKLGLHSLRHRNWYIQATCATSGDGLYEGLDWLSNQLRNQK

For the substance “GBF1-M832L-HA (hamster GBF1 with M830L, M832L relative to human GBF1, HA-tagged) (from UniProt Q9R1D7 1-1856)”, the Arf1-GTP level (GST-GGA3 pulldown, Western blot band intensity) in BFA-treated Vero cells expressing GBF1-M832L is 45 % of control and the Arf1-GTP level (GST-GGA3 pulldown, Western blot band intensity) in GCA-treated Vero cells expressing GBF1-M832L was 86 % of control.
